From patent US20260234209A1 come the findings set out here.

B1: C2-58-2X_mb7 (designed binder)
chain: MHHHHHHAENLYFQSGSDEELLRELLKLLLKLLEQMGDEEARRVVEELREELEKKGDPRALVLAFALVILVFLLRILRELGDEELVRRVEELWEELLKEGDPQAMMEVFKLVQELQERRGSGSDRRKEMDKVYRTAYKRITSTPDKEKRKEVVKEATEQLRRIAKDEEEKKKAAYMISFLKTLGS
B2: C8-71C_mb7 (designed binder)
chain: MEKKIGPEEILERAKESLERAREASERGDEEEFRKAAEKALELAKRLVEQAKKEGDPELVLEAARVALWVAELAAKNGDKEVFKKAAESALEVAKRLVEVASKEGDPDLVAWAALVALWVAFLAFLNGDKEVFKKAAESALEVAKALMEVAMKVGAPWLVELAIAVARAVWLLAELFGDEEVRRRAEAFEIILRIAAIAVKAWLGGGGSDRRKEMDKVYRTAYKRITSTPDKEKRKEVVKEATEQLRRIAKDEEEKKKAAYMISFLKTLGSLEHHHHHH
B3: C6-79C_mb7 (designed binder)
chain: MGSSDEEEARELEERAREAAKRAIEAAKRTGDPRVRELAEELVKLAIWAAVEVWLDPSSSDVNEALKLIVEAIEAAVRALEAAERTGDPEVRELARELVRLAVEAAEEVQRNPSSSDVNEALKLIVIAIEAAVRALEAAERTGDPEVRELARELVRLAVEAAEEVQRNPSSEEVNEALRKIIKLILFAVMVLELAEEIGDPTWREMARRAVREAVELAEEVQRDPSGWLGHGSDRRKEMDKVYRTAYKRITSTPDKEKRKEVVKEATEQLRRIAKDEEEKKKAAYMISFLKTLGSLEHHHHHH
B4: C4-71C_mb7 (designed binder)
chain: MGPEEILERARESLERAREASERGDEEEFRKAAEKALELAKRLVEQAKKEGDPWMVMWAALVALWVALLALRNGDKEVFKKAAESALEVAKRLVEVASKEGDPEMVLLAAWVALFVAWLAWLFGDKEVFKKAAESALEVAKRLVEVASKEGDPELVEEAAKVAEEVEKLAEKQGDEEVREKAWETWMEVWLLWLEVRLRKGGGGSDRRKEMDKVYRTAYKRITSTPDKEKRKEVVKEATEQLRRIAKDEEEKKKAAYMISFLKTLGSLEHHHHHH
B5: C4-71N_mb7 (designed binder)
chain: MGDRRKEMDKVYRTAYKRITSTPDKEKRKEVVKEATEQLRRIAKDEEEKKKAAYMISFLKTLGSPEEILERARESLERAREASERGDEEEFRKAAEKALELAKRLVEQAKKEGDPWMVMWAALVALWVALLALRNGDKEVFKKAAESALEVAKRLVEVASKEGDPEMVLLAAWVALFVAWLAWLFGDKEVFKKAAESALEVAKRLVEVASKEGDPELVEEAAKVAEEVEKLAEKQGDEEVREKAWETWMEVWLLWLEVRLRKGGGGSLEHHHHHH

For this experiment, the target named is human FGFR1c (human), P11362. Briefly: cell-based or functional assay.
human FGFR1c (human), P11362, sequence (P11362 22-822): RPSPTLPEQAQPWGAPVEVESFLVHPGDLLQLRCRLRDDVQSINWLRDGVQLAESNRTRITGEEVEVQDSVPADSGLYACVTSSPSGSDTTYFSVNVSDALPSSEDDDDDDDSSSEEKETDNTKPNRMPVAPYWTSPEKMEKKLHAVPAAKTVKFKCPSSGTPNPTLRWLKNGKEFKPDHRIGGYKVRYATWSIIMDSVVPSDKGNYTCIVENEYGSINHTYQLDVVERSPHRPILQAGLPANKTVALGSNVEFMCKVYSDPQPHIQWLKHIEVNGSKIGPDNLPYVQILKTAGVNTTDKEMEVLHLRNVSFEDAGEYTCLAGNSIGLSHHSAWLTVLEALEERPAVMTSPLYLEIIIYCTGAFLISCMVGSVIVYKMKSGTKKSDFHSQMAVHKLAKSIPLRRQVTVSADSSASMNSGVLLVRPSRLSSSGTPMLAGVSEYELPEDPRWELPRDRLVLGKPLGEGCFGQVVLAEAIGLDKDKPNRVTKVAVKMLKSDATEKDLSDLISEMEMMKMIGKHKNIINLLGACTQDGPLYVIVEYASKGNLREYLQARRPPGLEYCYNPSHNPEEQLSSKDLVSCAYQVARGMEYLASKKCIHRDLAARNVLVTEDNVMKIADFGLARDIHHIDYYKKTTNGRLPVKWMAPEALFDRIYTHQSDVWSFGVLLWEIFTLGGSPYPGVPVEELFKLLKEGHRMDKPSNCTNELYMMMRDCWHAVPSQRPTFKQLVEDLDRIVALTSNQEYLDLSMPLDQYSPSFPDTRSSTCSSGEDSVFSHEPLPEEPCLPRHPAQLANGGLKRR
Turning to B1, the EC50 of ERK1/2 phosphorylation (phosphoflow) in CHO-R1c cells turned out to be 0.63 nM and the EC50 of intracellular calcium release in CHO-R1c cells worked out at 26 nM.

As to B2, the EC50 of ERK1/2 phosphorylation (phosphoflow) in CHO-R1c cells came to 2.07 nM and the EC50 of intracellular calcium release in CHO-R1c cells is 3.09 nM.

Regarding B3, the EC50 of ERK1/2 phosphorylation (phosphoflow) in CHO-R1c cells is 1.56 nM and the EC50 of intracellular calcium release in CHO-R1c cells was 0.38 nM.

Regarding B4, the EC50 of ERK1/2 phosphorylation (phosphoflow) in CHO-R1c cells turned out to be 1.33 nM and the EC50 of intracellular calcium release in CHO-R1c cells was 0.72 nM.

The molecule B5 displayed an EC50 of ERK1/2 phosphorylation (phosphoflow) in CHO-R1c cells of 0.89 nM and an EC50 of ERK phosphorylation (phosphoflow), C4-71N mb7 extension series of 1.3 nM.
